Test results published in patent US12679878B2, “CRF2 receptor agonists and their use in therapy” (SANOFI, priority 2020, dated 2026).
Starred links: 1 amine or outer side, 2 acyl side, 3 side chain; linkers in the order of their positions; H or OH if unused. Non-standard residues stand in square brackets, D forms with d. Residues, ends and D or L forms follow the SMILES beside them. Groups on a side chain read outwards from the residue. No end group written: not given here. *: point of attachment. C20 diacid = O=C(O)CCCCCCCCCCCCCCCCCCC(=O)*; C18 diacid = O=C(O)CCCCCCCCCCCCCCCCC(=O)*; γGlu = O=C(O)[C@H](CCC(=O)[*:2])N[*:1]; Palmitoyl = CCCCCCCCCCCCCCCC(=O)*; AEEA = NCCOCCOCC(=O)O; Aib = CC(C)(N)C(=O)O

B1: peptide of SEQ ID NO: 172 (peptide)
peptide: IVLSLD[dV]PIKLK([AEEA-AEEA-γGlu-γGlu-C20 diacid])QILLKQERQK[Aib]QREQAEKNKQILAQV-NH2
modifications: N-terminus assumed
SMILES: CC[C@H](C)[C@H](N)C(=O)N[C@H](C(=O)N[C@@H](CC(C)C)C(=O)N[C@@H](CO)C(=O)N[C@@H](CC(C)C)C(=O)N[C@@H](CC(=O)O)C(=O)N[C@@H](C(=O)N1CCC[C@H]1C(=O)N[C@H](C(=O)N[C@@H](CCCCN)C(=O)N[C@@H](CC(C)C)C(=O)N[C@@H](CCCCNC(=O)COCCOCCNC(=O)COCCOCCNC(=O)CC[C@H](NC(=O)CC[C@H](NC(=O)CCCCCCCCCCCCCCCCCCC(=O)O)C(=O)O)C(=O)O)C(=O)N[C@@H](CCC(N)=O)C(=O)N[C@H](C(=O)N[C@@H](CC(C)C)C(=O)N[C@@H](CC(C)C)C(=O)N[C@@H](CCCCN)C(=O)N[C@@H](CCC(N)=O)C(=O)N[C@@H](CCC(=O)O)C(=O)N[C@@H](CCCNC(=N)N)C(=O)N[C@@H](CCC(N)=O)C(=O)N[C@@H](CCCCN)C(=O)NC(C)(C)C(=O)N[C@@H](CCC(N)=O)C(=O)N[C@@H](CCCNC(=N)N)C(=O)N[C@@H](CCC(=O)O)C(=O)N[C@@H](CCC(N)=O)C(=O)N[C@@H](C)C(=O)N[C@@H](CCC(=O)O)C(=O)N[C@@H](CCCCN)C(=O)N[C@@H](CC(N)=O)C(=O)N[C@@H](CCCCN)C(=O)N[C@@H](CCC(N)=O)C(=O)N[C@H](C(=O)N[C@@H](CC(C)C)C(=O)N[C@@H](C)C(=O)N[C@@H](CCC(N)=O)C(=O)N[C@H](C(N)=O)C(C)C)[C@@H](C)CC)[C@@H](C)CC)[C@@H](C)CC)C(C)C)C(C)C
B2: peptide of SEQ ID NO: 161 (peptide)
peptide: Ac-IVLSLD[dV]PIKLK([AEEA-AEEA-γGlu-C18 diacid])QILLEQERQE[Aib]EREQAEKNEQILEQV-NH2
SMILES: CC[C@H](C)[C@H](NC(C)=O)C(=O)N[C@H](C(=O)N[C@@H](CC(C)C)C(=O)N[C@@H](CO)C(=O)N[C@@H](CC(C)C)C(=O)N[C@@H](CC(=O)O)C(=O)N[C@@H](C(=O)N1CCC[C@H]1C(=O)N[C@H](C(=O)N[C@@H](CCCCN)C(=O)N[C@@H](CC(C)C)C(=O)N[C@@H](CCCCNC(=O)COCCOCCNC(=O)COCCOCCNC(=O)CC[C@H](NC(=O)CCCCCCCCCCCCCCCCC(=O)O)C(=O)O)C(=O)N[C@@H](CCC(N)=O)C(=O)N[C@H](C(=O)N[C@@H](CC(C)C)C(=O)N[C@@H](CC(C)C)C(=O)N[C@@H](CCC(=O)O)C(=O)N[C@@H](CCC(N)=O)C(=O)N[C@@H](CCC(=O)O)C(=O)N[C@@H](CCCNC(=N)N)C(=O)N[C@@H](CCC(N)=O)C(=O)N[C@@H](CCC(=O)O)C(=O)NC(C)(C)C(=O)N[C@@H](CCC(=O)O)C(=O)N[C@@H](CCCNC(=N)N)C(=O)N[C@@H](CCC(=O)O)C(=O)N[C@@H](CCC(N)=O)C(=O)N[C@@H](C)C(=O)N[C@@H](CCC(=O)O)C(=O)N[C@@H](CCCCN)C(=O)N[C@@H](CC(N)=O)C(=O)N[C@@H](CCC(=O)O)C(=O)N[C@@H](CCC(N)=O)C(=O)N[C@H](C(=O)N[C@@H](CC(C)C)C(=O)N[C@@H](CCC(=O)O)C(=O)N[C@@H](CCC(N)=O)C(=O)N[C@H](C(N)=O)C(C)C)[C@@H](C)CC)[C@@H](C)CC)[C@@H](C)CC)C(C)C)C(C)C
B3: peptide of SEQ ID NO: 171 (peptide)
peptide: IVLSLD[dV]PIKLK([AEEA-AEEA-γGlu-γGlu-C18 diacid])QILLKQERQK[Aib]QREQAEKNKQILAQV-NH2
modifications: N-terminus assumed
SMILES: CC[C@H](C)[C@H](N)C(=O)N[C@H](C(=O)N[C@@H](CC(C)C)C(=O)N[C@@H](CO)C(=O)N[C@@H](CC(C)C)C(=O)N[C@@H](CC(=O)O)C(=O)N[C@@H](C(=O)N1CCC[C@H]1C(=O)N[C@H](C(=O)N[C@@H](CCCCN)C(=O)N[C@@H](CC(C)C)C(=O)N[C@@H](CCCCNC(=O)COCCOCCNC(=O)COCCOCCNC(=O)CC[C@H](NC(=O)CC[C@H](NC(=O)CCCCCCCCCCCCCCCCC(=O)O)C(=O)O)C(=O)O)C(=O)N[C@@H](CCC(N)=O)C(=O)N[C@H](C(=O)N[C@@H](CC(C)C)C(=O)N[C@@H](CC(C)C)C(=O)N[C@@H](CCCCN)C(=O)N[C@@H](CCC(N)=O)C(=O)N[C@@H](CCC(=O)O)C(=O)N[C@@H](CCCNC(=N)N)C(=O)N[C@@H](CCC(N)=O)C(=O)N[C@@H](CCCCN)C(=O)NC(C)(C)C(=O)N[C@@H](CCC(N)=O)C(=O)N[C@@H](CCCNC(=N)N)C(=O)N[C@@H](CCC(=O)O)C(=O)N[C@@H](CCC(N)=O)C(=O)N[C@@H](C)C(=O)N[C@@H](CCC(=O)O)C(=O)N[C@@H](CCCCN)C(=O)N[C@@H](CC(N)=O)C(=O)N[C@@H](CCCCN)C(=O)N[C@@H](CCC(N)=O)C(=O)N[C@H](C(=O)N[C@@H](CC(C)C)C(=O)N[C@@H](C)C(=O)N[C@@H](CCC(N)=O)C(=O)N[C@H](C(N)=O)C(C)C)[C@@H](C)CC)[C@@H](C)CC)[C@@H](C)CC)C(C)C)C(C)C

Tests used:
CRF1R receptor = molecular target: T1, CRF1R receptor (Homo sapiens, UniProt P34998); assay: cAMP activity at anti-target CRF1R, CRF1R-overexpression CHO cell line (Example 9); type: cell-based; settings: CRF1R-overexpression CHO cell line
T1 construct: host or cells: CHO-K1 clone 2
T1 sequence (P34998 24-415): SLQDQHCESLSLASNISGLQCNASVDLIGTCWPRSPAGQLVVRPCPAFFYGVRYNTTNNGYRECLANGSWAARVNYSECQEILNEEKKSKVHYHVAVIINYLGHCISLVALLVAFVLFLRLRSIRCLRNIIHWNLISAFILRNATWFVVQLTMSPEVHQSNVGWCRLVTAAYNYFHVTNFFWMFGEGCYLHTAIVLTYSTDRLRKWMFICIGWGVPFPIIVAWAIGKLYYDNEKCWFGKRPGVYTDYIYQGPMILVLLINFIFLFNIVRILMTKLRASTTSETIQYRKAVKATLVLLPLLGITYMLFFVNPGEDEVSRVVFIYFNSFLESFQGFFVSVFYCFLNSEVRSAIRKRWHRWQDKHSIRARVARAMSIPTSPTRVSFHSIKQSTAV
Protocol: Cells were grown in a T175 culture flask placed at 37° C. to near confluence in medium (DMEM/10% FBS) and collected in 2 ml vials in cell culture medium containing 10% DMSO in a concentration of 10-50 million cells/ml. Each vial contained 1.8 ml cells. The vials were slowly frozen to −80° C. in isopropanol and then transferred in liquid nitrogen for storage. Prior to use, frozen cells were thawed quickly at 37° C. and washed (5 min at 900 rpm) with 20 ml cell buffer (1×HBSS; 20 mM HEPES; 0% or 0.1% HSA). Cells were resuspended in assay buffer (cell buffer plus 2 mM IBMX) and adjusted to a cell density of 1 million cells/ml. For measurement, 5 μl cells (final […]) and 5 μL of test compound were added to a 384-well plate, followed by incubation for 30 minutes at room temperature.
The CAMP content of cells was determined using a kit from Cisbio Corp. (cat. no. 62AM4PEC) based on HTRF (Homogenous Time Resolved Fluorescence). […] The percent activity value (E %) was calculated by setting 1000 nM of urocortin 2 (UCN2) as 100%.
A CRF1R-overexpression CHO cell line was used in this study.

[1] = molecular target: T2, anti-target CRF1R receptor (UniProt P34998 24-415, limits assumed); assay: cell-based or functional assay
T2 sequence (looked up): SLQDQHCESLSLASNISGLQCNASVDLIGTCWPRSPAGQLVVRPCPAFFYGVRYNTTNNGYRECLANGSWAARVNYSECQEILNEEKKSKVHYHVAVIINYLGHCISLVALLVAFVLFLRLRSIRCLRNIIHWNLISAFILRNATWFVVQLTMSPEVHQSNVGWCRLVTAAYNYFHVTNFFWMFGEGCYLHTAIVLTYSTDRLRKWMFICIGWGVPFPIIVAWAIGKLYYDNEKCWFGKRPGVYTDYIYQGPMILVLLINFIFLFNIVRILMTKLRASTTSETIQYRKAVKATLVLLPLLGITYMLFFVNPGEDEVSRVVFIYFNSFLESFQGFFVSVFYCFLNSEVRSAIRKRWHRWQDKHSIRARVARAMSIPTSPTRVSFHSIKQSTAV

Molecule | EC50 (CRF1R receptor; 0% HSA) [nM] | Emax (CRF1R receptor; read-out: Emax (%)) [%] | EC50[nM] 0% HSA (cAMP, CRF1R-overexpression CHO cells) [1] [nM] | Emax (%) (cAMP, CRF1R-overexpression CHO cells) [1]
CCCCCCCCCCCCCCCC(=O)N[C@@H](CCC(=O)NCCCC[C@H](NC(=O)[C@@H](NC(=O)[C@H](CCCCN)NC(=O)[C@@H](NC(=O)[C@@H]1CCCN1C(=O)[C@@H](NC(=O)[C@H](CC(=O)O)NC(=O)[C@H](CC(C)C)NC(=O)[C@H](CO)NC(=O)[C@H](CC(C)C)NC(=O)[C@@H](NC(=O)[C@@H](N)Cc1ccccc1)[C@@H](C)O)C(C)C)[C@@H](C)O)[C@@H](C)CC)C(=O)N[C@@H](CCC(N)=O)C(=O)N[C@@H](CCCCN)C(=O)N[C@@H](CC(C)C)C(=O)N[C@@H](CC(C)C)C(=O)N[C@@H](CCCCN)C(=O)N[C@@H](CCC(N)=O)C(=O)N[C@@H](CCC(=O)O)C(=O)N[C@@H](CCCCN)C(=O)N[C@@H](CCC(N)=O)C(=O)N[C@@H](CCCCN)C(=O)N[C@@H](CCCCN)C(=O)N[C@@H](CCC(N)=O)C(=O)N[C@@H](CCCNC(=N)N)C(=O)N[C@@H](CCC(N)=O)C(=O)N[C@@H](CCCCN)C(=O)N[C@@H](C)C(=O)N[C@@H](CCCCN)C(=O)N[C@H](C(=O)N[C@@H](C)C(=O)N[C@@H](CCCCN)C(=O)N[C@@H](CCC(N)=O)C(=O)N[C@H](C(=O)N[C@@H](CC(C)C)C(=O)N[C@@H](CCC(=O)O)C(=O)N[C@@H](CCC(N)=O)C(=O)N[C@H](C(N)=O)C(C)C)[C@@H](C)CC)[C@@H](C)O)C(=O)O [compound 9] (H-FTLSLDVPTKIK([γGlu-Palmitoyl])QKLLKQEKQKKQRQKAKTAKQILEQV-NH2) | > 1000 | 14.9 | – | –
B1 | – | – | > 1000 | 25.6
B2 | – | – | > 1000 | 3.42
B3 | – | – | > 1000 | 7.54
